Among the targets are B-Phuket HA; H1 HA; H10 HA; H13 HA; H14 HA; H2 HA; H3 HA; H5 HA; H6 HA; H7 HA; H8 HA; H9 HA.
Holding throughout (test): ELISA

Usually Kd stands for the free concentration of one partner at which half of the binding sites on the other are occupied at equilibrium, for simple one-to-one binding. Low values mean higher affinity, high ones lower affinity. The substance CR8033 returned a Kd in the test with B-Phuket HA of 0.11 nM.

Take FI6v3: the Kd with B-Phuket HA was greater than 100 nM; in the test with H1 HA, 0.29 nM; in the test with H10 HA, 9 nM; in the test with H13 HA it was 1.5 nM; in the test with H14 HA, 0.38 nM; in the test with H2 HA it was 0.3 nM. Further, the Kd with H3 HA amounted to 0.23 nM; in the test with H5 HA, 0.25 nM; in the test with H6 HA, 0.47 nM; with H7 HA, 0.34 nM; with H8 HA, 0.24 nM; with H9 HA it was 0.48 nM.

(Values after paper PMC8262862.)
